B1: OR4K15 (parent)
chain: GUUAACGGUCAUAGGCCAUGGAAACUAGGAGCACCAUUUCGCUGCCAGUGAAGAAAUGAACAAAGAAAAUCUGGGCCAGGCAGGCAUCAAAAGAAAUAGUCUUGCGCUCAACCAGAAAGUCUGUAAUCAUUUUAAGGGUA

The variants in the series derive from B1. Description: self-cleavage, relative activity (ratio to wild type); higher = more cleavage; in vitro, sequencing; the parent is a self-cleaving ribozyme.
As for GUUAACGGUCAUAGGCCAUGGAAACUAGGAGCACCAUUUCGCUGCCAGUGAAGAAAUGAACAAAGAAAUUCUGGGCCAGGCAGGCAUCAAAAGAAAUAGUCUUGCGCUCAACCAGAAAGUCUGUAAUCAUUCUAAGGGUA [A69U U132C], the self-cleavage came out at 1.11.

For the variant GUUAACGGUCAUAGGCCAUGGAAACUGGGAGCACCAUUUCGCUGCCAGUGAAGAAACGAACAAAGAAAAUCUGGGCCAGGCAGGCAUCAAAAGAAAUAGUCUUGCGCUCAACCAGAAAGUCUGUAAUCAUUUUAAGGGUA [A27G U57C], the self-cleavage came to 0.49. Consider GUUAACGGUCAUAGGCCAUGGAAACUAGGAGCACCAUUUCGCUGCCAGUGAAGAAAUGAACAAAGAAAAUCUGGGCCAGGCAGGCAUCAGAAGAAAUAGUCUUGCCCUCAACCAGAAAGUCUGUAAUCAUUUUAAGGGUA [A90G G106C], for which the self-cleavage amounted to 0.

With GUUAACGGUCGUAGGCCAUGGAAACUAGGAGCACCAUUUCGCUGCCAGUUAAGAAAUGAACAAAGAAAAUCUGGGCCAGGCAGGCAUCAAAAGAAAUAGUCUUGCGCUCAACCAGAAAGUCUGUAAUCAUUUUAAGGGUA [A11G G50U], the self-cleavage amounted to 1.02. Next, GUUAACGGUCAUAGGCCAUGGAAACUAGGAGCACCAUUUCGCUGCCAGUGAAGAAAUGAACAAAGAGAAUCUGGCCCAGGCAGGCAUCAAAAGAAAUAGUCUUGCGCUCAACCAGAAAGUCUGUAAUCAUUUUAAGGGUA [A67G G75C]: 0.03. Next, GUUAACGGUCAUAGGCCAUGGAAACUAGGGGCACCAUUUCGCUGCCAGUGAAGAAAUGAACAAAGAAAAUCUGGGCCAGGCAGGCAUCAAAAGAAAUAGUCUUGCGCUCAACCAGAAAGUCUGUAAUCAUCUUAAGGGUA [A30G U131C]: 0.95. Regarding GUUAACGGUCAUAGGCCAUGGAAACUAGGAGCACCAUUUCGCAGCCAGUGAAGAAAUGAACAAAGAAAAUCUGGGCCAGGCAGGCAUCAAAAGAAAUAGUCUUGCGCUCACCCAGAAAGUCUGUAAUCAUUUUAAGGGUA [U43A A111C], the self-cleavage worked out at 0.03. Consider GUUAACGGUCAUAGGCCAUGGAAACUAGGAGCACCAUUUCGCUGCCAGUGAAGAAAUGAACAAAGAAAACCUGGGCCAGGCAGGCAUCAAAAGAAAUAGUCUCGCGCUCAACCAGAAAGUCUGUAAUCAUUUUAAGGGUA [U70C U103C], for which the self-cleavage was found to be 0.56. As for GUUAACGGUCAUACGCCAUGGAAACUAGGAGCACCAUUUCGCUGCCAGUGAAGAAAUGAACAAAGAAAAUCUGGGCCAGGCAGGCAUCAAAAGAAAUAGUCUUGCGCUCAACCAGAAGGUCUGUAAUCAUUUUAAGGGUA [G14C A118G], the self-cleavage was 0.43. On to GUUAACGGUCAUAGGCCAUGGAAACUAGGAGCACUAUUUCGCUGCCAGUGAGGAAAUGAACAAAGAAAAUCUGGGCCAGGCAGGCAUCAAAAGAAAUAGUCUUGCGCUCAACCAGAAAGUCUGUAAUCAUUUUAAGGGUA [C35U A52G], for which the self-cleavage was found to be 1.03. Turning to GUUAACGGUCAUAGGCCAUGGAAACUAGGAGCACCAUUUCGCUGCCAGUGAAGGAAUGAACAAAGAAAAUCUGGGCCAGGCAGGCAUCAUAAGAAAUAGUCUUGCGCUCAACCAGAAAGUCUGUAAUCAUUUUAAGGGUA [A54G A90U], the self-cleavage came to 1.57. For the variant GUUAACGGUCAUAGGCCAUGGGAACAAGGAGCACCAUUUCGCUGCCAGUGAAGAAAUGAACAAAGAAAAUCUGGGCCAGGCAGGCAUCAAAAGAAAUAGUCUUGCGCUCAACCAGAAAGUCUGUAAUCAUUUUAAGGGUA [A22G U26A], the self-cleavage was found to be 0.67. Take GUUAACGGUCAUAGGCCAUGGAAACUAGGAGCGCCAUUUCGCUGCCAGUGAAGAGAUGAACAAAGAAAAUCUGGGCCAGGCAGGCAUCAAAAGAAAUAGUCUUGCGCUCAACCAGAAAGUCUGUAAUCAUUUUAAGGGUA [A33G A55G]: the self-cleavage came out at 0.85. On to GUUAACGGUCACAGGCCAUGGAAACUAGGAGCACCAUGUCGCUGCCAGUGAAGAAAUGAACAAAGAAAAUCUGGGCCAGGCAGGCAUCAAAAGAAAUAGUCUUGCGCUCAACCAGAAAGUCUGUAAUCAUUUUAAGGGUA [U12C U38G], for which the self-cleavage was determined as 1.22. In the case of GUUAACGGUCAUAGGCCAUGGAAACUAGGAGCACCUUUUCGCUGCCAGUGAAGAAAUGAACAAAGAAAAUCUGGGCCAGGCAGGCAUCAAAAGAAAUAGUCUUGCGCUCAACCAGAAAGUCAGUAAUCAUUUUAAGGGUA [A36U U122A], the self-cleavage was determined as 1.78. For GUUAACGGUCAUAGGCCAUGGAAACUAGGAGCACCAUUUCGCUGCCAGUGAAGGAAUGAACAAAGAAAAUCUGGGCCAGGCAGGCAUCAAAAGAAAUAGUCUUGCGCUCAACCAAAAAGUCUGUAAUCAUUUUAAGGGUA [A54G G115A], the self-cleavage came out at 0.25. For GUUAGCGGUCAUAGGCCAUGGAAACUAGGAGCACCAUUUCGCUGCCAUUGAAGAAAUGAACAAAGAAAAUCUGGGCCAGGCAGGCAUCAAAAGAAAUAGUCUUGCGCUCAACCAGAAAGUCUGUAAUCAUUUUAAGGGUA [A5G G48U], the self-cleavage is 0.93.

With GUUAACGGUCAUGGGCCAUGGAAACUAGGUGCACCAUUUCGCUGCCAGUGAAGAAAUGAACAAAGAAAAUCUGGGCCAGGCAGGCAUCAAAAGAAAUAGUCUUGCGCUCAACCAGAAAGUCUGUAAUCAUUUUAAGGGUA [A13G A30U], the self-cleavage was determined as 1.14. Take GUUAACGGUCAUAGGCCAUGGAAACUAGGAGCACCGUUUCGCUGCCAGUGAAGAAAUGAACAGAGAAAAUCUGGGCCAGGCAGGCAUCAAAAGAAAUAGUCUUGCGCUCAACCAGAAAGUCUGUAAUCAUUUUAAGGGUA [A36G A63G]: the self-cleavage worked out at 1.32. Consider GUUAACGGUCAUAGGCCAUGGAAACUAGGAGCACCAUUUCGCUGCCAGUGAAGAAAUGAACAAAGAAAAUCUGGGCCAGGCAGGCAUCAAAAGAAGUAGUCUUGCGCUCAACCAGAAAGUCUGUAACCAUUUUAAGGGUA [A96G U127C], for which the self-cleavage was found to be 0.58. Take GUUAACGGUCAUAGGCCAUGGAAACUAGGAGCACCAUUUCGCUGCCAGUGAAGAAAUGAACAAAGAAAAUCUGGGCCAGGCAGGCAUCCAAAGAAAUAGUCUUGCGCCCAACCAGAAAGUCUGUAAUCAUUUUAAGGGUA [A89C U108C]: the self-cleavage stood at 0.01. Take GUUAACGGUCGUAGGCCAUGGAAACUAGGAGCACCAUUUCGCUGCCAGUGAAGAAAUGAACAAAGAAAAUCUGAGCCAGGCAGGCAUCAAAAGAAAUAGUCUUGCGCUCAACCAGAAAGUCUGUAAUCAUUUUAAGGGUA [A11G G74A]: the self-cleavage amounted to 0.41. For the variant GUUAACGGUCAAAGGCCAUGGAAACUAGGAGCACCAUUUCGCUGCCAGUGAAGAAAUGAACAAAGAAAAUCUGGGCUAGGCAGGCAUCAAAAGAAAUAGUCUUGCGCUCAACCAGAAAGUCUGUAAUCAUUUUAAGGGUA [U12A C77U], the self-cleavage is 1.45. As to GUUAACGGUCAUAGGCCAUGGAAACUAGGAGCACCAUUUCGCUGCCAGAGAAGUAAUGAACAAAGAAAAUCUGGGCCAGGCAGGCAUCAAAAGAAAUAGUCUUGCGCUCAACCAGAAAGUCUGUAAUCAUUUUAAGGGUA [U49A A54U], the self-cleavage worked out at 0.89. Next, GUUAACGGUCAUAGGCCAUGGAAACUAGGAGCACCAUUUCGCUGCCAGUGAAGAAAUAAACAAAGAAAAUCUGGGCCAGGCAGGCAUCAAAAGAAAUAGUCUUGCGCUCAACCAGAAAGUCUGUAAUCAUUUCAAGGGUA [G58A U133C]: 1.94; GUUAACGGUCAUAGGCCAUGGAAACUGGGAGCACCAUUUCGCUGCCAGUGAAGAAAUGAACAAAGAAAAUCUGGGCCAGGCAGGCAUCAAAAGAAAUAGUCUUGCGCUCAACCAGAAAGUCUUUAAUCAUUUUAAGGGUA [A27G G123U]: 1.67.

As to GUUAACGGUCAAAGGCCAUGGAAACUAGGAGCACCAUUUCGCUGCCAGUGAAGAAAUGAACAAAGAAAACCUGGGCCAGGCAGGCAUCAAAAGAAAUAGUCUUGCGCUCAACCAGAAAGUCUGUAAUCAUUUUAAGGGUA [U12A U70C], the self-cleavage amounted to 0.41. As to GUUAACGGUCAUAGGCCAUGGAAACUAGGAGCACCAUUUCGCUGCCAGUGAAGAAAUGAACCAAGAAAAUCUGGGCCAGGCAGGCAUCAAAAGAAAUAGUCUUGCGCUCAACCAGAAAGUCUGUAAUCACUUUAAGGGUA [A62C U130C], the self-cleavage amounted to 0.71. In the case of GUUAACGGUCAUAGGCUAUGGAAACUAGGAGCACCAUUUCGCUGCCAGUGAAGAAAUGAACAAAGAAAAUCUGGGCCAGGCAGGCAUCAAAAGAAAUAGUCCUGCGCUCAACCAGAAAGUCUGUAAUCAUUUUAAGGGUA [C17U U102C], the self-cleavage is 0.9. For the variant GUUAACGGUCAUAGGCCUUGGAAACUAGGAGCACCAUUUCGCUGCCAGUGAAGAAAUGAACUAAGAAAAUCUGGGCCAGGCAGGCAUCAAAAGAAAUAGUCUUGCGCUCAACCAGAAAGUCUGUAAUCAUUUUAAGGGUA [A18U A62U], the self-cleavage came to 1.56. On to GUUAACGGCCAUAGGCCAUGGAAACUAGGAGCACCUUUUCGCUGCCAGUGAAGAAAUGAACAAAGAAAAUCUGGGCCAGGCAGGCAUCAAAAGAAAUAGUCUUGCGCUCAACCAGAAAGUCUGUAAUCAUUUUAAGGGUA [U9C A36U], for which the self-cleavage is 1.48. Take GUUAACGGUCAUAGGCCAUGGAAACUAGGGGCACCAUUUCGCUGCCAGUGAAGAAAUGAACAAAGAAAAUCUGGGCCAGGCAGGCAUCAAAAGAAAUAGUCUUGCGCCCAACCAGAAAGUCUGUAAUCAUUUUAAGGGUA [A30G U108C]: the self-cleavage stood at 0.02. Turning to GUUAUCGGUCAUAGGCCAUGGAAACUAGGAGCACCAUUUCGCUGCCAGUGAAGUAAUGAACAAAGAAAAUCUGGGCCAGGCAGGCAUCAAAAGAAAUAGUCUUGCGCUCAACCAGAAAGUCUGUAAUCAUUUUAAGGGUA [A5U A54U], the self-cleavage is 1.7. As to GUUAACGGUCAUAGGCCAUGGAAACUAGGAACACCAUUUCGCUGCCAGUGAAGAAAUGACCAAAGAAAAUCUGGGCCAGGCAGGCAUCAAAAGAAAUAGUCUUGCGCUCAACCAGAAAGUCUGUAAUCAUUUUAAGGGUA [G31A A60C], the self-cleavage is 1.95. Regarding GUUAACGGUCAUAGGCCAUGGAAACUAGGAGCACCAUUUCGCUGCCAGUGAAGAAAUGAACAAUGAAAAUCUGGGCCAGGCAGGCAUCAAAAGAAAUAGUCUUGCGCUCAACCAGAAAGUCAGUAAUCAUUUUAAGGGUA [A64U U122A], the self-cleavage came to 1.78.

GUUAACGGUCAUAGGCCAUGGAAACUAGGAGCACCAUUUCGCUGCCAGUGAAGAAAUGAACAAAGAAAAUCUGGGCCAGGCAGGCAUCAAAAGAAAUAGUCUUGCGCUCAACCAGAAAGUCUUUAAUCAUUUUAAGGGUA [G123U]: the self-cleavage was found to be 1.59.

GCUAACGGUCAUAGGCCAUGGAAACUAGGAGCACCAUUUCGCUGCCAGUGGAGAAAUGAACAAAGAAAAUCUGGGCCAGGCAGGCAUCAAAAGAAAUAGUCUUGCGCUCAACCAGAAAGUCUGUAAUCAUUUUAAGGGUA [U2C A51G]: the self-cleavage worked out at 0.84.

Take GUUAACGGUCAUAGGCCAUGGAAACUAGGAGCACCAUUUCGCUGCCAGUGAGGAAAUGAACAAAGAAAAUCUGGGCCAGGCAGGCAUCCAAAGAAAUAGUCUUGCGCUCAACCAGAAAGUCUGUAAUCAUUUUAAGGGUA [A52G A89C]: the self-cleavage came out at 2.11.

Turning to GUUAACGGUCAUAGGCCAUGGAAACUAGGAGCACCAUUUUGCUGCCAGUGAAGAAAUGAACAAAGAAAAUCUGGGCCGGGCAGGCAUCAAAAGAAAUAGUCUUGCGCUCAACCAGAAAGUCUGUAAUCAUUUUAAGGGUA [C40U A78G], the self-cleavage was found to be 0.44. For GUUAACGGUCAUAGGCCAUGGAAACUAGGAGCGCCAUUUCGCUGCCAGUGAAGAAAUGAACAAAGAAAAUCUGGGCCAGGCAGGCAUCAAAAGAAAUAGUCUUGCGCACAACCAGAAAGUCUGUAAUCAUUUUAAGGGUA [A33G U108A], the self-cleavage came out at 0.02.

As to GUUAACGGUCAUAGGCCAUGGAAACUAGGAGCACCAUUUCGCUGCCAGUGGAGAAAUGAACAAAGAAAAUCUGGGCCAGGCAGGCAUCAAAAGAAAUAGUCUUGCGCUCAACCAGAAAGUCUGUAAUCAUUUUAGGGGUA [A51G A135G], the self-cleavage stood at 1.7.

Source of the values: the RNAGym collection of RNA variant scans (doi:10.7554/elife.90254).
